# Assay results reported in patent US20180134804A1 (Memorial Sloan Kettering, published 2018).
# B1: scFv phage clone #2 (scFv)
# scFv: QSVLTQPPSVSGAPGQRVTISCTGSSSNIGAGYDVHWYQQLPGTAPKLLIYGNSNRPSGVPDRFSGSKSGTSASLAITGLQAEDEADYYCQSYDSSLSGSVFGTGTKVTVLGSRGGGGSGGGGSGGGGSLEMAVQLVQSGAEVKKPGSSVKVSCKASGGTFSSYTINWVRQAPGQGLEWMGGFIPISGTVNYAQKFQGRVTITADESTSTAYMELSSLRSEDTAVYYCARPLDWTEDIWGQGTLVTVSS
# notes: also called K-Ras G12V/HLA A0201 specific phage clone
# B2: Ras mAb #4, full-length human IgG1 (antibody, V domains shown)
# VH: EVQLVQSGAEVKKPGASVKVSCKASGYTFTAYYLHWLRQAPGQGLEWMGWMNTNNGATRYAQKFQDRVTMTRDTSINTAYMEMSGLSSDDTAMYYCARGDISQDFADVWGQGTLVTVSS
# VL: NFMLTQPHSVSESPGKTVTISCTGSSGSIASNYVQWYQQRPGSAPTILIYEDNKRPSGVPDRFSGSIDSSSNSASLTISGLKTGDEADYYCQSYDDINHWVFGGGTKLTVLG
# notes: also called clone #4; Ras antibody #4
# B3: Ras mAb #7, full-length human IgG1 (antibody, V domains shown)
# VH: EVQLVESGAEVKEPGSSVKVSCKASGGTFSSYGISWIRQAPGQGLEWMGEIIPIFGTPNYAQKFQGRVTITADESTSTAYVELSSLRSDDTAVYYCARSYYGYFDGWGQGTLVTVSS
# VL: DIQMTQSPSSLSASVGDRVTITCQASQDISNYLNWYQQKPGKAPKLLIYDASNLETGVPSRFSGSGSGTDFTFTISSLQPDDFATYYCQQYKSYPLTFGGGTKVEIKR
# notes: also called clone #7; Ras antibody #7
# B4: RAS10-G12S peptide (peptide)
# peptide: KLVVVGASGV
# notes: peptide of the complex m14; also called R10-G12S
# B5: Ras mAb #2, full-length human IgG1 (antibody, V domains shown)
# VH: QVQLVQSGAEVKKPGSSVKVSCKASGGTFSSYTINWVRQAPGQGLEWMGGFIPISGTVNYAQKFQGRVTITADESTSTAYMELSSLRSEDTAVYYCARPLDWTEDIWGQGTLVTVSS
# VL: QSVLTQPPSVSGAPGQRVTISCTGSSSNIGAGYDVHWYQQLPGTAPKLLIYGNSNRPSGVPDRFSGSKSGTSASLAITGLQAEDEADYYCQSYDSSLSGSVFGTGTKVTVLG
# notes: also called clone #2; Ras antibody #2
# Experiments:
# [1] = target: T1, HLA-A0201 on T2 cells without added peptide (human); experiment: flow cytometry, scFv phage on T2 cells, anti-M13 detection
# T1 construct: Used as the negative target (T2 cells alone) and as the HLA-A0201 partner of the free peptides in the T2 stabilization assay; also called T2 alone; empty T2 cells
# [2] = target: T2, Ras10-WT peptide/HLA-A0201 complex on peptide-pulsed T2 cells (human); experiment: flow cytometry, scFv phage on peptide-loaded T2 cells, anti-M13 detection
# T2 construct: also called Ras WT; T2-0142WT
# [3] = target: T3, Ras9-WT peptide/HLA-A0201 complex on peptide-pulsed T2 cells (human); experiment: as above
# T3 construct: also called T2-0141WT
# [4] = target: T1, HLA-A0201 on T2 cells without added …; experiment: flow cytometry of T2 cells without peptide
# [5] = target: RAS10-G10A peptide/HLA-A0201 complex on peptide-pulsed T2 cells; experiment: flow cytometry of T2 cells pulsed with peptide
# [6] = target: T2, Ras10-WT peptide/HLA-A0201 complex on …; experiment: flow cytometry of T2 cells pulsed with peptide
# [7] = target: T4, Ras10-G12V peptide with alanine substitution at position 12/HLA-A0201 complex on peptide-pulsed T2 cells (human); experiment: flow cytometry of T2 cells pulsed with peptide
# T4 construct: Position 12 counts on the Ras protein; also called peptide containing an alanine substitution at position 12
# [8] = target: T5, biotinylated Ras10-WT/HLA-A0201 complex monomer (human, chain 1: C-terminal BirA substrate peptide (letters not given), enzymatically biotinylated by BirA); experiment: BLI (ForteBio Octet QK), biotinylated pMHC on streptavidin sensor
# T5 construct: also called Ras wt/HLA-A0201; not shown: the BirA substrate peptide (BSP) at the C-terminus of the heavy chain
# [9] = target: T6, Ras10-G12C peptide/HLA-A0201 complex on peptide-pulsed T2 cells (human); experiment: flow cytometry, indirect staining of peptide-pulsed T2 cells (peptide 50 µg/ml)
# T6 construct: also called Ras-G12C
# [10] = target: Ras10-G12D peptide/HLA-A0201 complex on peptide-pulsed T2 cells (human); experiment: as above
# [11] = target: T7, Ras9-G12V peptide/HLA-A0201 complex on peptide-pulsed T2 cells (human); experiment: flow cytometry, indirect staining of T2 cells pulsed with 50 ug/ml peptide
# T7 construct: also called K-Ras9 G12V/HLA A0201; T2-014A1mut
# [12] = target: T3, Ras9-WT peptide/HLA-A0201 complex on …; experiment: as above
# [13] = target: T8, biotinylated Ras10-G12V/HLA-A0201 complex monomer (human, chain 1: C-terminal BirA substrate peptide (letters not given), enzymatically biotinylated by BirA); experiment: BLI (ForteBio Octet QK), biotinylated pMHC on streptavidin sensor, mAb at 10 µg/mL, 1:1 model partial fit
# T8 construct: also called Ras G12V/HLA-A0201; Ras-G12V/HLA A0201 complex monomer; not shown: the BirA substrate peptide (BSP) at the C-terminus of the heavy chain
# [14] = target: RAS10-V9A peptide/HLA-A0201 complex on peptide-pulsed T2 cells; experiment: flow cytometry of T2 cells pulsed with peptide
# [15] = target: RAS10-G13A peptide/HLA-A0201 complex on peptide-pulsed T2 cells; experiment: flow cytometry of T2 cells pulsed with peptide
# [16] = target: T5, biotinylated Ras10-WT/HLA-A0201 complex …; experiment: BLI (ForteBio Octet QK), biotinylated pMHC on streptavidin sensor, mAb at 10 µg/mL, 1:1 model partial fit
# [17] = target: T1, HLA-A0201 on T2 cells without added …; experiment: T2 stabilization control, flow cytometry: BB7 staining of T2 cells pulsed with the peptide
# Experimental: The binding of the mAb to the peptide/HLA-A2 complex was measured by direct staining with mAbs conjugated to APC or by indirect staining with mAbs, followed by secondary goat anti-human IgG1/FITC mAb. The binding of the mAbs was measured by flow cytometry on a FACScalibur (Becton Dickenson) and analyzed with FlowJo 9.6.3 software. […] (F) Antibody by the above peptides to T2 cells was measured.
# [18] = target: T1, HLA-A0201 on T2 cells without added …; experiment: as above; remark: listed apart in the source
# Experimental: The binding of the mAb to the peptide/HLA-A2 complex was measured by indirect (A) or indirect staining with mAbs conjugated to APC (B).
binder,measurement,setting,value
B1,binding result,[1],no binding
same,binding result,[2],no binding
same,binding result,[3],no binding
B2,binding result,[4],no binding (tested: 10 ug/ml)
same,binding result,[5],no binding (tested: 10 ug/ml)
same,binding result,[6],no binding (tested: 10 ug/ml)
same,binding result,[7],no binding (tested: 10 ug/ml)
same,binding result,[8],no binding (tested: 10 µg/mL)
same,binding result,[9],no binding
same,binding result,[10],no binding
same,binding result,[11],no binding (tested: 10 ug/ml)
same,binding result,[12],no binding (tested: 10 ug/ml)
same,Kd,[13],9.19 nM
same,koff,[13],0.00363 s⁻¹
same,kon,[13],396000 M⁻¹ s⁻¹
B3,binding result,[4],no binding (tested: 10 ug/ml)
same,binding result,[14],binds
same,binding result,[15],binds
same,binding result,[9],no binding
same,binding result,[10],no binding
same,binding result,[11],no binding (tested: 10 ug/ml)
same,binding result,[12],no binding (tested: 10 ug/ml)
same,Kd,[13],8.77 nM
same,koff,[13],0.000746 s⁻¹
same,kon,[13],85000 M⁻¹ s⁻¹
same,Kd,[16],65.1 nM
same,koff,[16],0.00153 s⁻¹
same,kon,[16],23400 M⁻¹ s⁻¹
B4,binding result,[17],binds
KLVVVGGVGV (Position 11 counts on the Ras protein) [Ras10-A11G peptide],binding result,[17],binds
B5,binding result,[4],no binding (tested: 10 ug/ml)
same,binding result,[6],no binding (tested: 10 ug/ml)
same,binding result,[8],no binding (tested: 10 µg/mL)
same,binding result,[10],no binding
same,binding result,[12],no binding (tested: 10 ug/ml)
same,Kd,[13],8.88 nM
LVVVGAGGV (Free synthetic peptide) [RAS9-WT peptide],binding result,[18],binds
